# Results published in the supplement of paper PMC10065799, “High-throughput profiling of sequence recognition by tyrosine kinases and SH2 domains using bacterial peptide display” (eLife, 2023).
# Experiments:
# [1] = target: c-Src SH2; assay: SH2 binding enrichment of the phosphorylated peptide, bacterial display (enrichment ratio); higher = better substrate or ligand; peptides without Tyr show the background
# [2] = target: Grb2 SH2 (UniProt P62993); assay: as above
# [3] = target: SHP2-C SH2; assay: as above
# [4] = tested on: Fer (mouse); assay: phosphorylation enrichment, bacterial display (enrichment ratio); higher = better substrate or ligand; peptides without Tyr show the background
# [5] = target: Fyn (UniProt P06241); assay: as above
# Chain of Fyn (P06241 whole entry, looked up): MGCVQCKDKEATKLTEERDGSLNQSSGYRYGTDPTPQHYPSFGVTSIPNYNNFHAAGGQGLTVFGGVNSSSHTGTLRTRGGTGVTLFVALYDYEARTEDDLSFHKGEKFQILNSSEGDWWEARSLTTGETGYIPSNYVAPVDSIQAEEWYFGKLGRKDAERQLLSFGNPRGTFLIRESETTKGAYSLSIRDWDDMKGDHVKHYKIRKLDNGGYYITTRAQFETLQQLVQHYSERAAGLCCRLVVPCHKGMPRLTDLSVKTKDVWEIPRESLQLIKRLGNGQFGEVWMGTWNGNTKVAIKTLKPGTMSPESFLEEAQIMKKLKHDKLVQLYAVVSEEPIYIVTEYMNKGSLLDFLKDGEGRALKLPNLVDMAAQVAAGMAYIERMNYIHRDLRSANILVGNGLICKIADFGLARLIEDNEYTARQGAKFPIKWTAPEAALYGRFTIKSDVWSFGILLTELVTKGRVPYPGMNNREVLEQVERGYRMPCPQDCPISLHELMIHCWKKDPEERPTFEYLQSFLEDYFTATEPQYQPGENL
# [6] = target: FGFR3 (UniProt P22607); assay: as above
# Chain of FGFR3 (P22607 whole entry, looked up): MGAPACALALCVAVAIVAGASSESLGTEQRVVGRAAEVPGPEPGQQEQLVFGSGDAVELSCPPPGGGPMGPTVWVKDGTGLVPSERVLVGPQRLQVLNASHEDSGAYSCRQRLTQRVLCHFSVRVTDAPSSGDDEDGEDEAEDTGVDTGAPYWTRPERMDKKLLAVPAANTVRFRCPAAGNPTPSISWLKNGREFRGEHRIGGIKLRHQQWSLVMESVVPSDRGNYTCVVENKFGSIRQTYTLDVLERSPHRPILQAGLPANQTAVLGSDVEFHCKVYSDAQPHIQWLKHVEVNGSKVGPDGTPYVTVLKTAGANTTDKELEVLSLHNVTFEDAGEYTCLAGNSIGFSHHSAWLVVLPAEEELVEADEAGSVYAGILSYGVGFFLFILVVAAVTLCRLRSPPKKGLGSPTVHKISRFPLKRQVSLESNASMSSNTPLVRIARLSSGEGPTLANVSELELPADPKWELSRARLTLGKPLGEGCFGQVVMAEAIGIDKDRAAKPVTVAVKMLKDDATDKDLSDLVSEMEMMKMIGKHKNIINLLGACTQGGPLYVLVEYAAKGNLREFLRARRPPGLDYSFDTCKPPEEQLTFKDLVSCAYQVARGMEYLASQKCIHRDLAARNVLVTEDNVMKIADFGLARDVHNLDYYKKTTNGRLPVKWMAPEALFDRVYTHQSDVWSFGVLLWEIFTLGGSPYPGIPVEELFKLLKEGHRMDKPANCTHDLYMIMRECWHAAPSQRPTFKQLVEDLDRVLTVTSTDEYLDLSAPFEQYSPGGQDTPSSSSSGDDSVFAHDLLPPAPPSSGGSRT
# [7] = target: Jak2 (UniProt O60674); assay: as above
# [8] = target: MERTK (UniProt Q12866); assay: as above
# Chain of MERTK (Q12866 whole entry, looked up): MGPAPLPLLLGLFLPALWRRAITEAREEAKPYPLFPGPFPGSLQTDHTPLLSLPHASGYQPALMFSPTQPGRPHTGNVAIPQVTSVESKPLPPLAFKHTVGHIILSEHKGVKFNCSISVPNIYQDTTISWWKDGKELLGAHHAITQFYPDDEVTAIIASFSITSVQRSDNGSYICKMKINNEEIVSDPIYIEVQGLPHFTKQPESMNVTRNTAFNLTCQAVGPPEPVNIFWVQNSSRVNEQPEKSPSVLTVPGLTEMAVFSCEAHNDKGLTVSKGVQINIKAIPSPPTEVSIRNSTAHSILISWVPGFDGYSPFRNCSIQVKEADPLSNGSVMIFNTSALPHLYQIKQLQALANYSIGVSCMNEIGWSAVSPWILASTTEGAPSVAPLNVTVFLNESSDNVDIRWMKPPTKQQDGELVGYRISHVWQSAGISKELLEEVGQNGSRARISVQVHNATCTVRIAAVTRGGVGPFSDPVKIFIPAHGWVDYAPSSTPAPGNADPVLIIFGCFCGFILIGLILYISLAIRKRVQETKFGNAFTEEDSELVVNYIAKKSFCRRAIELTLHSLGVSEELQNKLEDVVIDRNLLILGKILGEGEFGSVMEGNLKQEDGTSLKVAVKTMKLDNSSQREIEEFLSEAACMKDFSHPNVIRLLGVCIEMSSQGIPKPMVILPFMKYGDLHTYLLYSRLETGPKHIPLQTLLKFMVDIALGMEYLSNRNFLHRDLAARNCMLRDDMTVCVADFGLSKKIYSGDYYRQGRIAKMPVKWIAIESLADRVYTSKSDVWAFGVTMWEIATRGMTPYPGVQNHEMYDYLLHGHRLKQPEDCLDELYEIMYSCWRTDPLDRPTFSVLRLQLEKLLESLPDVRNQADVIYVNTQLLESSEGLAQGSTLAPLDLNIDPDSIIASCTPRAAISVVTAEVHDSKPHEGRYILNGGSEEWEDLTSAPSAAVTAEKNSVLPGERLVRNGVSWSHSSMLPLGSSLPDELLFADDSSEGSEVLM
# [9] = target: Fes (UniProt P07332); assay: as above
# [10] = target: FGFR1 (UniProt P11362); assay: as above
# Chain of FGFR1 (P11362 whole entry, looked up): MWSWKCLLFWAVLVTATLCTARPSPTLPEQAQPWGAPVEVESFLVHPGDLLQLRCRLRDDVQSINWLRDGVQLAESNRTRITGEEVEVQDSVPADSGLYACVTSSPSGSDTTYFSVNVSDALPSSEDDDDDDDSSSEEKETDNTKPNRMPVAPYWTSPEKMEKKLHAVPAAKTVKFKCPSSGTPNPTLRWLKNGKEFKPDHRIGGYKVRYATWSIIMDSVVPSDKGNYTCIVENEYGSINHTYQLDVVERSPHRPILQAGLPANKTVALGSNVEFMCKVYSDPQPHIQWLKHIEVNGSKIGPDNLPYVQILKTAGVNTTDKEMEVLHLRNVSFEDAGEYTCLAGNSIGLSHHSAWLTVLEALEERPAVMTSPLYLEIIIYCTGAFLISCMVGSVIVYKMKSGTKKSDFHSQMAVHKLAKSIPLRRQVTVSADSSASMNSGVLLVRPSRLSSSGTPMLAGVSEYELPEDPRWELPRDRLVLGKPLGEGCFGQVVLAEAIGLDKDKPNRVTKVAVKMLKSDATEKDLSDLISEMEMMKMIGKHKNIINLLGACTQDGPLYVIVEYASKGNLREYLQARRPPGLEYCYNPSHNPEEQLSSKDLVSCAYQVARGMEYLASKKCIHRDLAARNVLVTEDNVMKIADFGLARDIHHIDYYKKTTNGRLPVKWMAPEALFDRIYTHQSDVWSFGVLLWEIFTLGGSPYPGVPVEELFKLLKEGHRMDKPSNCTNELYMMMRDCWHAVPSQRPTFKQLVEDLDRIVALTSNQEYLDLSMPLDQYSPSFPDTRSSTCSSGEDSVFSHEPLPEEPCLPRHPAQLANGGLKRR
# [11] = tested on: c-Src; assay: as above
# [12] = tested on: AncSZ; assay: as above
# [13] = target: EPHB2 (UniProt P29323); assay: as above
# Chain of EPHB2 (P29323 whole entry, looked up): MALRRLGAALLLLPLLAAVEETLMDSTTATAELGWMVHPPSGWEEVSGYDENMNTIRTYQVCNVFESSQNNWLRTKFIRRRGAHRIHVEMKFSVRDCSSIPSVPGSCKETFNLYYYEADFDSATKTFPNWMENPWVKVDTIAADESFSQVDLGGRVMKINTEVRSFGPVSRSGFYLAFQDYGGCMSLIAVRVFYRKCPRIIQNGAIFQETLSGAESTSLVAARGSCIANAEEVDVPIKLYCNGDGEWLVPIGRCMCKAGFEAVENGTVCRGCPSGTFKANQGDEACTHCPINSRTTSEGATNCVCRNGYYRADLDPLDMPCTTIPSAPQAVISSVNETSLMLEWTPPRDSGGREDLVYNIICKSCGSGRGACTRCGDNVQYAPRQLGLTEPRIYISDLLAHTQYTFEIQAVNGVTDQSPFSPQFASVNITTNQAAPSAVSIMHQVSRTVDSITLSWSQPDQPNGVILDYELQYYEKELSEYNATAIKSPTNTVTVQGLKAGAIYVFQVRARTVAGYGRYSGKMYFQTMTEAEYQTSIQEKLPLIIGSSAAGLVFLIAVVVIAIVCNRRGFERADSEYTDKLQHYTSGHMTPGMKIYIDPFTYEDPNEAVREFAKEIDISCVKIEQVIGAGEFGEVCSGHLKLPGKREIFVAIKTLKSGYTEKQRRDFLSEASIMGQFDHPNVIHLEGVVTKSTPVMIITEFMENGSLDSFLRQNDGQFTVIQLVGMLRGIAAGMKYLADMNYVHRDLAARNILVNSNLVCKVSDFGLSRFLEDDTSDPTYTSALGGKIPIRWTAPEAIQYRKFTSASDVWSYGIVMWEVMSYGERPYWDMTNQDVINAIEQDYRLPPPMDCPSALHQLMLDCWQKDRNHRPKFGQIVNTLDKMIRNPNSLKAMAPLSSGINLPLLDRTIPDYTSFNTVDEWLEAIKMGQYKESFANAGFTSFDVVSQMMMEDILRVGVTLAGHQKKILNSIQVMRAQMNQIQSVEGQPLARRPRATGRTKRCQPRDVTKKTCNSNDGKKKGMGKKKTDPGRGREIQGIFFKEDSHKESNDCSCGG
# [14] = target: Hck (UniProt P08631); assay: as above
# Chain of Hck (P08631 whole entry, looked up): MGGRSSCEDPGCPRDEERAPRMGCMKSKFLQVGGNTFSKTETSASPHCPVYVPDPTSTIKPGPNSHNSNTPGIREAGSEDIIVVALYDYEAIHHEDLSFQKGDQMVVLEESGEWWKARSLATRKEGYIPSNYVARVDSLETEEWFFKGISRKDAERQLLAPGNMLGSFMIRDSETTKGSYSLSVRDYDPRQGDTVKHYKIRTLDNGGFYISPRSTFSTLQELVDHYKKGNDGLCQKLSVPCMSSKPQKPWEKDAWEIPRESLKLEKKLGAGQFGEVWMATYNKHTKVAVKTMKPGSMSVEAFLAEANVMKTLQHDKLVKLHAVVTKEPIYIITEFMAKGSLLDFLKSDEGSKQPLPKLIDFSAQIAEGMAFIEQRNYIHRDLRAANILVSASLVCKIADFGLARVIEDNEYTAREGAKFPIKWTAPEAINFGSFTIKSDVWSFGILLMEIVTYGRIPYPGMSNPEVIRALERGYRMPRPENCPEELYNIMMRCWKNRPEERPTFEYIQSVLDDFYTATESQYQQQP
# [15] = target: EPHB1 (UniProt P54762); assay: as above
# [16] = tested on: c-Abl (mouse); assay: as above
# 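Wherever SH2 binding enrichment of the phosphorylated peptide, bacterial display is given: peptide library displayed on the E. coli surface as eCPX fusions, selected cells deep-sequenced, score is each peptide's frequency after selection divided by its frequency in the input.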
# 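Wherever phosphorylation enrichment, bacterial display is given: 11-residue human phosphosite peptides and single-mutation variants displayed on the E. coli surface, counted by deep sequencing, each peptide's frequency after selection divided by its frequency in the unselected input library; frequency after pTyr selection over input frequency; kinase dosed for 20-30% of maximal phosphorylation in three min.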
Sequence,SH2 binding enrichment [1],SH2 binding enrichment [2],SH2 binding enrichment [3],phosphorylation enrichment [4],phosphorylation enrichment [5],phosphorylation enrichment [6],phosphorylation enrichment [7],phosphorylation enrichment [8],phosphorylation enrichment [9],phosphorylation enrichment [10],phosphorylation enrichment [11],phosphorylation enrichment [12],phosphorylation enrichment [13],phosphorylation enrichment [14],phosphorylation enrichment [15],phosphorylation enrichment [16]
NAPNSYGRRPT [CDKN2A_Y44_I49T],0.567,0.599,0.615,0.38,0.402,0.499,1.11,0.593,0.717,0.343,0.528,0.784,0.281,0.424,0.452,0.79
NDHHVYLEGTL [ALDOB_Y223],1.72,0.995,0.646,0.46,0.468,0.578,0.662,0.435,0.756,0.494,0.421,0.718,0.509,0.53,0.494,0.555
NELTFYCCKKD [CD59_Y87_YF],0.503,0.938,0.707,0.461,0.452,0.715,1.29,0.466,1.28,0.54,0.436,1.39,0.739,0.46,0.514,0.808
NELTFYCFKKD [CD59_Y87_C89Y_YF],0.404,0.754,0.504,0.591,0.412,0.614,1.12,0.381,1.22,0.456,0.35,0.96,0.492,0.448,0.541,0.758
NFRTTCVNANE [KCNH2_Y475_Y475C],0.387,0.723,0.536,0.464,0.53,0.619,0.979,0.423,0.955,0.528,0.428,0.974,0.605,0.483,0.53,0.808
NHRNQYQALKT [CLSPN_Y887_P892T],1.17,0.994,1,0.499,0.451,0.439,0.48,0.4,0.656,0.503,0.364,0.536,0.43,0.506,0.422,0.753
NKPTVYGVSPN [ABL1_Y226],0.501,0.899,0.523,0.443,0.55,0.446,0.478,0.395,0.623,0.376,0.659,0.547,0.373,0.603,0.399,0.67
NLMPAYYKCIQ [CYP21A2_Y190],0.522,0.596,0.444,0.626,0.432,0.866,1.34,0.57,1.28,0.57,0.51,1.09,0.496,0.507,0.708,1.24
NLNGKYYKPRA [ANGPTL3_Y417_N418Y],0.861,1.3,0.974,0.354,0.241,0.445,0.617,0.304,0.57,0.408,0.406,0.474,0.324,0.312,0.404,0.61
NNDLCYWVPEL [IARS1_Y434],0.514,0.813,0.791,0.643,1.92,5.02,3.15,4.55,1.22,5.92,2.17,2.86,5.52,2.13,4.43,8.63

# Now from value to sequence, other results behind:
SH2 binding enrichment [1],SH2 binding enrichment [2],SH2 binding enrichment [3],Sequence,phosphorylation enrichment [4],phosphorylation enrichment [5],phosphorylation enrichment [6],phosphorylation enrichment [7],phosphorylation enrichment [8],phosphorylation enrichment [9],phosphorylation enrichment [10],phosphorylation enrichment [11],phosphorylation enrichment [12],phosphorylation enrichment [13],phosphorylation enrichment [14],phosphorylation enrichment [15],phosphorylation enrichment [16]
12.1,0.826,19.3,NGSKGYAYVHF [PABPC5_Y147],0.516,0.493,0.718,0.961,0.519,0.904,0.736,0.456,1.08,0.61,0.499,0.553,0.707
0.466,0.717,0.488,NGVSYYINLCQ [IGF2R_Y2025],0.548,0.449,1.04,1.38,0.417,1.38,0.525,0.374,1.19,0.548,0.581,0.787,0.916
1.11,1.33,1.4,NHFKICNLCAE [PTEN_Y68_Y68C_YF],0.4,0.415,0.544,0.682,0.484,0.687,0.401,0.486,0.609,0.468,0.413,0.461,0.75
1.1,1.11,0.949,NPEACYQRLKK [TK2_Y190_T188A],0.419,0.474,0.471,0.892,0.484,0.597,0.381,0.685,0.63,0.507,0.802,0.417,0.558
0.604,0.688,0.516,NREGVYTVFAP [TGFBI_Y537],8.74,13.3,1.07,0.862,11.4,1.11,0.885,8.95,1.54,2.04,10,2.35,1.57
0.98,1.51,1.66,NTGFFYDLFGG [PTPN11_Y63_D61Y_YF],0.77,2.42,0.786,1.19,3.4,1.31,0.509,2.85,1.24,0.659,1.52,0.693,0.869
